# Laboratory results published in patent publication US20050226874A1 (CENTRE NATIONAL DE LA RECHERCHE SCIENTIFIQUE CNRS A …, published 2005).
# Numbering of substitutions follows the chain as printed. In names and notes the source's numbering stands.
# B1: mutant Fab C92-H of the 13B8.2 antibody (Fab, V domains shown)
# VH: QVQLKQSGPGLVQPSQSLSITCTVSGFSLTTFGVHWVRQSPGKGLEWLGVIWRSGITDYNVPFMSRLSITKDNSKSQVFFKLNSLQPDDTAIYYAAKNDPGTGFAYWGQGTLVTVSA
# VL: DIQMTQSPASLSASVGETVTFTCRASENIYSYLAWYQQKQGKSPQLLVHDAKTLAEGVPSRFSGGGSGTQFSLKINTLQPEDFGTYYCQHHYGNPPTFGGGTKLEIK
# notes: Chimeric Fab with human CH1-γ1 and Cκ; baculovirus/Sf9
# B2: mutant Fab R38-H of the 13B8.2 antibody (Fab, V domains shown)
# VH: B1 VH with R38A, A95C
# VL: B1 VL
# notes: as for B1
# B3: mutant Fab W52-H of the 13B8.2 antibody (Fab, V domains shown)
# VH: B1 VH with W52A, A95C
# VL: B1 VL
# notes: as for B1
# B4: mutant Fab W103-H of the 13B8.2 antibody (Fab, V domains shown)
# VH: B1 VH with A95C, W107A
# VL: B1 VL
# notes: as for B1
# B5: mutant Fab R53-H of the 13B8.2 antibody (Fab, V domains shown)
# VH: B1 VH with R53A, A95C
# VL: B1 VL
# notes: as for B1
# B6: mutant Fab F100K-H of the 13B8.2 antibody (Fab, V domains shown)
# VH: B1 VH with A95C, F104A
# VL: B1 VL
# notes: as for B1
# B7: mutant Fab H35-H of the 13B8.2 antibody (Fab, V domains shown)
# VH: B1 VH with H35A, A95C
# VL: B1 VL
# notes: as for B1
# B8: mutant Fab W36-H of the 13B8.2 antibody (Fab, V domains shown)
# VH: B1 VH with W36A, A95C
# VL: B1 VL
# notes: as for B1
# B9: mutant Fab Y32-L of the 13B8.2 antibody (Fab, V domains shown)
# VH: B1 VH with A95C
# VL: B1 VL with Y32A
# notes: as for B1
# B10: wild recombinant chimeric Fab fragment of the 13B8.2 anti-CD4 antibody (Fab, V domains shown)
# VH: B1 VH with A95C
# VL: B1 VL
# notes: Chimeric Fab: murine V domains fused to human CH1-γ1 (Fdγ1) and human Cκ, expressed in baculovirus/Sf9 cells, purified on protein G; also called Fabwild 13B8.2; wild Fab
# B11: mutant Fab F32-H of the 13B8.2 antibody (Fab, V domains shown)
# VH: B1 VH with F32A, A95C
# VL: B1 VL
# notes: Chimeric Fab with human CH1-γ1 and Cκ; baculovirus/Sf9; also called F32 mutant Fab
# B12: control mutant Fab V61-H of the 13B8.2 antibody (Fab, V domains shown)
# VH: B1 VH with V61A, A95C
# VL: B1 VL
# notes: Chimeric Fab with human CH1-γ1 and Cκ; baculovirus/Sf9; Control position, not a Spot contributor residue; also called V61-Hcontrol
# B13: mutant Fab Y36-L of the 13B8.2 antibody (Fab, V domains shown)
# VH: B1 VH with A95C
# VL: B1 VL with Y36A
# notes: as for B1
# B14: mutant Fab Y102-H of the 13B8.2 antibody (Fab, V domains shown)
# VH: B1 VH with A95C, Y106A
# VL: B1 VL
# notes: as for B1
# B15: alanine analogue of peptide 49GVIWRS54 with Val50 replaced by Ala (peptide)
# peptide: GAIWRS
# notes: Spot peptide on cellulose membrane; also called GAIWRS
# B16: alanine analogue of peptide 49GVIWRS54 with Arg53 replaced by Ala (peptide)
# peptide: GVIWAS
# notes: Spot peptide on cellulose membrane; also called GVIWAS
# B17: alanine analogue of peptide 49GVIWRS54 with Ser54 replaced by Ala (peptide)
# peptide: GVIWRA
# notes: Spot peptide on cellulose membrane; also called GVIWRA
# B18: hexapeptide 52WRSGIT57 of the CDR-H2 region of 13B8.2 (peptide)
# peptide: WRSGIT
# notes: Spot peptide on cellulose membrane; also called peptide 2
# B19: hexapeptide 49GVIWRS54 of the CDR-H2 region of 13B8.2 (peptide)
# peptide: GVIWRS
# notes: also called peptide 1; control peptide 1
# B20: alanine analogue of peptide 49GVIWRS54 with Ile51 replaced by Ala (peptide)
# peptide: GVAWRS
# notes: Spot peptide on cellulose membrane; also called GVAWRS
# B21: alanine analogue of peptide 49GVIWRS54 with Gly49 replaced by Ala (peptide)
# peptide: AVIWRS
# notes: Spot peptide on cellulose membrane; also called AVIWRS
# Biological target: T1, soluble human recombinant CD4 expressed in baculovirus (human, UniProt P01730 26-396, limits assumed)
# T1 construct: Coated on plates for the ELISA and covalently immobilised on the sensor for BIAcore; Only called soluble; also called soluble CD4; CD4 expressed in the baculovirus
# Assay: SPR (BIAcore), CD4 immobilised
# Description: (§1) The kinetic parameters of the binding of CD4 to the paratope of the Fab fragments of the 13B8.2 antibody were determined by analysis of the surface plasmon resonance by means of a BIAcore analyzer (BIAcore AB, Uppsala, Sweden).
Binder,Kd,koff,kon
B1,3.7 nM,0.000358 s⁻¹,96100 M⁻¹ s⁻¹
B2,859 nM,0.00014 s⁻¹,163 M⁻¹ s⁻¹
B3,3620 nM,0.000859 s⁻¹,237 M⁻¹ s⁻¹
B4,4030 nM,0.00112 s⁻¹,278 M⁻¹ s⁻¹
B5,29200 nM,0.0105 s⁻¹,359 M⁻¹ s⁻¹
B6,845 nM,0.000475 s⁻¹,562 M⁻¹ s⁻¹
B7,6280 nM,0.00189 s⁻¹,301 M⁻¹ s⁻¹
B8,15.4 nM,0.000271 s⁻¹,17600 M⁻¹ s⁻¹
B9,8930 nM,0.000585 s⁻¹,

# Biological target: T1, soluble human recombinant CD4 expressed …
# Assay: SPR (BIAcore), CD4 immobilised, Exp. 2
# Description: as §1
Binder,Kd,koff,kon
B10,33.5 nM,0.000161 s⁻¹,4800 M⁻¹ s⁻¹
B11,17 nM,0.000246 s⁻¹,14400 M⁻¹ s⁻¹
B12,2.9 nM,0.000324 s⁻¹,112000 M⁻¹ s⁻¹

# Biological target: T1, soluble human recombinant CD4 expressed …
# Assay: SPR (BIAcore), CD4 immobilised, Exp. 1
# Description: as §1
Binder,Kd,koff,kon
B10,28.4 nM,0.000108 s⁻¹,3800 M⁻¹ s⁻¹
B13,25.4 nM,0.000651 s⁻¹,25600 M⁻¹ s⁻¹
B11,13.5 nM,0.000248 s⁻¹,18300 M⁻¹ s⁻¹
B12,2 nM,0.000172 s⁻¹,86800 M⁻¹ s⁻¹

# Biological target: T1, soluble human recombinant CD4 expressed …
# Assay: ELISA on coated baculovirus-expressed soluble CD4, anti-human kappa-peroxidase, A490 [panel Mutants CDR-H 13B8.2]
# Description: A 1:500 dilution of the CD4 fraction expressed by the baculovirus in 0.1 M carbonate/bicarbonate buffer, pH 9.6, was incubated overnight at 4° C. on 96-well enzymatic immunoanalysis plates (Nunc, Paisley, UK). Four washings with the phosphate saline buffer (PBS) 160 mM pH 7.2, containing 0.1% Tween 20 (PBD-T), were performed before and after the saturation of the microplates, with powdered skim milk at a concentration of 1% in the PBS-T for one hour at 37° C.
row,Binder,binding result
1,B14,binds

# Biological target: T1, soluble human recombinant CD4 expressed …
# Assay: SPR (BIAcore), CD4 immobilised, Exp. 2; Exp. 2
# Description: as §1
Binder,Kd,koff,kon
B13,11.4 nM,0.00057 s⁻¹,50000 M⁻¹ s⁻¹

# Biological target: T2, biotinylated human recombinant CD4 (Repligen Inc.) (human, UniProt P01730 26-394, limits assumed, biotinylated (sites not given))
# T2 construct: Probe of the Spot membranes, used at 1 µg/ml; also called biotinylated CD4; CD4 probe
# Assay: Spot peptides on cellulose membrane probed with biotinylated CD4
# Description: (§2) The antigenic reactivity of the peptides bound to the cellulose membrane was tested with biotinylated CD4 (1 μg/ml) under conditions that led to the production of a blue precipitate for the reactive spots as described in [Bès, 2001b].
row,Binder,binding result
1,WASGIT (also called WASGIT) [alanine analogue of peptide 52WRSGIT57 with Arg53 replaced by Ala (dotted bar R53)],no binding
2,B15,binds

# Biological target: T1, soluble human recombinant CD4 expressed …
# Assay: SPR (BIAcore), CD4 immobilised, Exp. 3
# Description: as §1
Binder,Kd,koff,kon
B10,25.6 nM,6.4e-05 s⁻¹,2500 M⁻¹ s⁻¹
B11,16.9 nM,0.00025 s⁻¹,14800 M⁻¹ s⁻¹

# Biological target: T2, biotinylated human recombinant CD4 …
# Assay: Spot peptide on cellulose probed with biotinylated CD4
# Description: as §2
row,Binder,binding result
1,B16,no binding
2,B17,binds

# Biological target: T3, membranous CD4 (wild human CD4 expressed on cells) (human, UniProt P01730 26-458)
# T3 construct: whole, on cells; also called T A2.01/CD4 cells; T AN2.01/CD4 cells
# Assay: flow cytometry, T A2.01/CD4 cells, Fab at 10 µg/ml, fluorescein-labeled anti-kappa chain antibody
# Description: (§3) The binding of the wild or mutant Fabs to the membranous CD4 was evaluated by flow cytometry.
# (§4) In order to determine the binding of the fragments to the membranous CD4, T AN2.01 CD4+ cells were analyzed by indirect immunofluorescent labeling and flow cytometry (FIG. 4).
row,Binder,percent of cells under the marker bar of the histogram
1,B10,84.8%
2,B11,82.4%
3,B4,6.76%
4,B5,43.2%
5,B7,33.6%
6,B8,65.5%

# Biological target: T2, biotinylated human recombinant CD4 …
# Assay: quantified Spot reactivity, membrane probed with biotinylated CD4
# Description: as §2
row,Binder,binding result
1,B18,binds
2,WRSGIA (also called WRSGIA) [alanine analogue of peptide 52WRSGIT57 with Thr57 replaced by Ala (dotted bar T57)],binds
3,WRAGIT (also called WRAGIT) [alanine analogue of peptide 52WRSGIT57 with Ser54 replaced by Ala (dotted bar S54)],binds
4,WRSAIT (also called WRSAIT) [alanine analogue of peptide 52WRSGIT57 with Gly55 replaced by Ala (dotted bar G55)],binds
5,ARSGIT (also called ARSGIT) [alanine analogue of peptide 52WRSGIT57 with Trp52 replaced by Ala (dotted bar W52)],binds
6,WRSGAT (also called WRSGAT) [alanine analogue of peptide 52WRSGIT57 with Ile56 replaced by Ala (dotted bar I56)],binds
7,B19,binds
8,B20,binds
9,B21,binds

# Biological target: T3, membranous CD4 (wild human CD4 …)
# Assay: flow cytometry, T A2.01/CD4 cells, Fab at 1 µg/ml, fluorescein-labeled anti-kappa chain antibody
# Description: as §3, §4
row,Binder,percent of cells under the marker bar of the histogram
1,B10,44.7%
2,B13,44.6%
3,B1,76.5%
4,B2,48%
5,B12,62.9%
